Results from patent publication US9345662B2, “Degradable hydrogel compositions and methods” (RUTGERS, THE STATE UNIVERSITY OF NEW JERSEY, priority 2008, dated 2016).

Experiment: In vitro release (cumulative cleavage) from PEG-Glu-Lys conjugates in PBS (fluorescamine assay)
Format: physicochemical
Experimental: PEG-Glu(NH2)-(α)Lys(Z)OMe conjugate (15 mg) was dissolved in PBS (15 ml) and incubated at 37° C. Aliquots (50 μL) were taken at regular time intervals and the sample aliquots were dried using a CentriVap (Labconco Corporation, Kansas City, Mo.). The cumulative cleavage (%) of Lys(Z)OMe from PEG-Glu(NH2)-(α)Lys(Z)OMe conjugate was measured using fluorescamine assay^24.
PEG-Glu(NH2)-(ε)Lys(Z)OMe conjugates (15 mg) was dissolved in PBS (15 ml) and incubated at […] Aliquots (50 μL) were taken at regular time intervals and the sample aliquots were dried using a CentriVap (Labconco Corporation, Kansas City, Mo.). The cumulative cleavage (%) of Z-LysOMe from PEG-Glu(NH2)-(ε)Lys(Z)OMe conjugate was measured using fluorescamine assay^24.

Substance | Z-LysOMe released from conjugate (7° C., at the time under E15) | time of Z-LysOMe release from conjugate (7° C., extent under E14) | release (cumulative cleavage) of Lys(Z)OMe from conjugate (37° C., at the time under E13) | time of Lys(Z)OMe release from conjugate (37° C., extent under E12)
PEG-Glu(NH2)-(ε)Lys(Z)OMe [PEG-Glu(NH2)-(ε)Lys(Z)OMe conjugate] | 99% | ~29 h |  | 
PEG-Glu(NH2)-(α)Lys(Z)OMe [PEG-Glu(NH2)-(α)Lys(Z)OMe conjugate] |  |  | ~99% | 490 h
